Experimental findings from the supplement of paper PMC10724198 are described below.

This series concerns Saccharomyces cerevisiae. Nature of the series: protein stability index of tFT-peptide fusion (C-terminal peptide) (PSI (0-1 scale)); higher = more stable (slower turnover). The note with it: temperature: 30 C. The method, then:
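MPS profiling in S. cerevisiae of the yeast C-terminome library: the last 12 aa of each annotated ORF are fused to the C-terminus of a sfGFP-mCherry timer, after a GGGS linker. Cells are FACS-sorted into 8 mCherry/sfGFP bins and deep-sequenced. PSI runs from 0 (unstable) to 1 (stable); wild type and das1Δ backgrounds, two technical replicates each.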

Setting [1] is: genetic background: das1 deletion.

± gives the standard deviation of the averaged measurements.

Sequence INKTLAWMDEGL [ERG26 C-terminal 12 aa] displayed a protein stability index under setting [1] of 0.694 ± 0.013 and a protein stability index (genetic background: wild type) of 0.728 ± 0.055.

As for INPMPANFAELS [FAL1 C-terminal 12 aa], the protein stability index by setting is: under setting [1], 0.721 ± 0.017; (genetic background: wild type) 0.689 ± 0.049.

Regarding IPSIGKPKTIKI [BUD17 C-terminal 12 aa], the protein stability index reads like this: under setting [1], 0.672 ± 0.015; (genetic background: wild type) 0.7017 ± 0.0033.

Consider IPTSFFFFNSIV [YKL123W C-terminal 12 aa], for which the protein stability index was determined as 0.734 ± 0.034 under setting [1] and 0.305 ± 0.0033 (genetic background: wild type).

Regarding “IQFFSQCTSCTV [YLR286W-A C-terminal 12 aa]”, the protein stability index came out at 0.507 ± 0.0085 under setting [1] and 0.5256 ± 0.004 (genetic background: wild type).

As to IQYYEEILRRGL [SPP1 C-terminal 12 aa], the protein stability index turned out to be 0.683 ± 0.024 under setting [1] and 0.677 ± 0.027 (genetic background: wild type).

IRCVFMFRTNAK [YLR296W C-terminal 12 aa]: the protein stability index is, setting by setting: under setting [1], 0.578 ± 0.03; (genetic background: wild type) 0.595 ± 0.018.

For the sequence IRDAKFCDKHED [BOR1 C-terminal 12 aa], the protein stability index is, setting by setting: under setting [1], 0.6971 ± 0.0014; (genetic background: wild type) 0.671 ± 0.035.

Turning to IRLKRRDFMKNL [RRT12 C-terminal 12 aa], the protein stability index was determined as 0.689 ± 0.0069 under setting [1] and 0.382 ± 0.0049 (genetic background: wild type).

ISKKYYSRYDKK [OM14 C-terminal 12 aa]: the protein stability index is, setting by setting: under setting [1], 0.683 ± 0.037; (genetic background: wild type) 0.616 ± 0.025.

On to ISTLKAIYNKMD [PEX9 C-terminal 12 aa], for which the protein stability index by setting is: under setting [1], 0.69065 ± 0.0004; (genetic background: wild type) 0.672 ± 0.009.

As to ISWLEKMKKFFH [MAM33 C-terminal 12 aa], the protein stability index came out at 0.7163 ± 0.0048 under setting [1] and 0.693 ± 0.009 (genetic background: wild type).

As to ITLAELDVGDSE [CAF130 C-terminal 12 aa], the protein stability index reads like this: under setting [1], 0.703 ± 0.03; (genetic background: wild type) 0.7119 ± 0.0027.

Consider ITNATFREIDDA [SEC12 C-terminal 12 aa], for which the protein stability index stood at 0.692 ± 0.0098 under setting [1] and 0.671 ± 0.03 (genetic background: wild type).

Consider “ITNFFRVLVRLV [YER067C-A C-terminal 12 aa]”, for which the protein stability index was 0.526 ± 0.024 under setting [1] and 0.155 ± 0.0039 (genetic background: wild type).

For the sequence IVCGDGSIHWFQ [FAU1 C-terminal 12 aa], the protein stability index runs as follows: under setting [1], 0.735 ± 0.0094; (genetic background: wild type) 0.769 ± 0.041.

As to “IVFTSVGAFNIL [YMR172C-A C-terminal 12 aa]”, the protein stability index by setting is: under setting [1], 0.717 ± 0.016; (genetic background: wild type) 0.7349 ± 0.0029.

Regarding IVNIKILRRNSR [LDB16 C-terminal 12 aa], the protein stability index reads like this: under setting [1], 0.796 ± 0.014; (genetic background: wild type) 0.7813 ± 0.003.

Take IVSFLSDETKSP [ECM18 C-terminal 12 aa]: the protein stability index is, setting by setting: under setting [1], 0.7282 ± 0.0009; (genetic background: wild type) 0.714 ± 0.011.

Regarding IWLVYKLYCFIF [CST26 C-terminal 12 aa], the protein stability index came out at 0.3724 ± 0.0025 under setting [1] and 0.3155 ± 0.0014 (genetic background: wild type).

Take “IYVCGRLTNDRK [YIL171W-A C-terminal 12 aa]”: the protein stability index by setting is: under setting [1], 0.6871 ± 0.0066; (genetic background: wild type) 0.65 ± 0.015.

Sequence KAGEMVLKSLRR [SCP160 C-terminal 12 aa] registered a protein stability index under setting [1] of 0.67 ± 0.028 and a protein stability index (genetic background: wild type) of 0.783 ± 0.017.

Consider KAKSRREGTTRT [STU2 C-terminal 12 aa], for which the protein stability index is, setting by setting: under setting [1], 0.7121 ± 0.0033; (genetic background: wild type) 0.694 ± 0.013.

For KCEEVNDGLRWK [EHD3 C-terminal 12 aa], the protein stability index by setting is: under setting [1], 0.6964 ± 0.0049; (genetic background: wild type) 0.711 ± 0.1.

Regarding KCLYVQVITKSN [ECM8 C-terminal 12 aa], the protein stability index is 0.5487 ± 0.0052 under setting [1] and 0.256 ± 0.019 (genetic background: wild type).

Take KDNTVDIYDVNG [TGS1 C-terminal 12 aa]: the protein stability index runs as follows: under setting [1], 0.687 ± 0.023; (genetic background: wild type) 0.682 ± 0.013.

Turning to KEYISDQRKKRK [LOA1 C-terminal 12 aa], the protein stability index runs as follows: under setting [1], 0.6823 ± 0.00078; (genetic background: wild type) 0.722 ± 0.023.

For the sequence KFLRYNPLEKRD [RPB10 C-terminal 12 aa], the protein stability index by setting is: under setting [1], 0.693 ± 0.012; (genetic background: wild type) 0.704 ± 0.02.

KFNLVTQRENSL [YGR025W C-terminal 12 aa]: the protein stability index turned out to be 0.697 ± 0.021 under setting [1] and 0.695 ± 0.026 (genetic background: wild type).

Consider KGGEDGSLVSSN [NHP10 C-terminal 12 aa], for which the protein stability index reads like this: under setting [1], 0.688 ± 0.014; (genetic background: wild type) 0.709 ± 0.011.

For KGGLEGWVKSQL [LYS4 C-terminal 12 aa], the protein stability index was 0.808 ± 0.018 under setting [1] and 0.811 ± 0.074 (genetic background: wild type).

Regarding KGRALENLPDES [SSM4 C-terminal 12 aa], the protein stability index is, setting by setting: under setting [1], 0.675 ± 0.016; (genetic background: wild type) 0.692 ± 0.032.

Turning to KICEVAARQKWI [AAN1 C-terminal 12 aa], the protein stability index runs as follows: under setting [1], 0.6888 ± 0.0048; (genetic background: wild type) 0.627 ± 0.02.

Regarding KIEVSSQESWGN [HSP26 C-terminal 12 aa], the protein stability index is 0.68 ± 0.0024 under setting [1] and 0.693 ± 0.037 (genetic background: wild type).

Sequence KINYDAIDGLFR [BRF1 C-terminal 12 aa] had a protein stability index under setting [1] of 0.71 ± 0.013 and a protein stability index (genetic background: wild type) of 0.681 ± 0.014.

As for KKGLLHKLKKKL [IST2 C-terminal 12 aa], the protein stability index by setting is: under setting [1], 0.7257 ± 0.0041; (genetic background: wild type) 0.668 ± 0.045.

In the case of KKGRQERKLANR [PPZ2 C-terminal 12 aa], the protein stability index reads like this: under setting [1], 0.689 ± 0.026; (genetic background: wild type) 0.683 ± 0.029.

On to KKKANIPKAKSA [HUT1 C-terminal 12 aa], for which the protein stability index was 0.706 ± 0.0094 under setting [1] and 0.686 ± 0.013 (genetic background: wild type).

Consider KKKFSFFGKRKK [PAM1 C-terminal 12 aa], for which the protein stability index by setting is: under setting [1], 0.684 ± 0.017; (genetic background: wild type) 0.704 ± 0.048.

As for KKKFYKQYHFDL [PDR8 C-terminal 12 aa], the protein stability index was determined as 0.715 ± 0.016 under setting [1] and 0.727 ± 0.035 (genetic background: wild type).

Consider KKKNKNKGKKKR [SRP21 C-terminal 12 aa], for which the protein stability index was 0.6857 ± 0.006 under setting [1] and 0.719 ± 0.048 (genetic background: wild type).

Take KKKSRMFSFRKS [UBP13 C-terminal 12 aa]: the protein stability index reads like this: under setting [1], 0.702 ± 0.011; (genetic background: wild type) 0.709 ± 0.048.

For KKNDTPKPKPLK [SFC1 C-terminal 12 aa], the protein stability index amounted to 0.7063 ± 0.00074 under setting [1] and 0.678 ± 0.01 (genetic background: wild type).

The sequence KKNRSGLRHSES [SQS1 C-terminal 12 aa] returned a protein stability index under setting [1] of 0.683 ± 0.011 and a protein stability index (genetic background: wild type) of 0.6606 ± 0.0038.

With KKPFDKKPKFNI [YKU70 C-terminal 12 aa], the protein stability index is, setting by setting: under setting [1], 0.727 ± 0.024; (genetic background: wild type) 0.686 ± 0.017.

Take KLCTGIVWAPRV [YAR070C C-terminal 12 aa]: the protein stability index runs as follows: under setting [1], 0.681 ± 0.0084; (genetic background: wild type) 0.7035 ± 0.0022.

As to KLDIPVSFLLAA [YBL053W C-terminal 12 aa], the protein stability index reads like this: under setting [1], 0.443 ± 0.0065; (genetic background: wild type) 0.467 ± 0.044.

For the sequence KLKFLQNTYNND [CCE1 C-terminal 12 aa], the protein stability index stood at 0.674 ± 0.015 under setting [1] and 0.635 ± 0.0079 (genetic background: wild type).

Take KLLGIFPNLSNF [YLL054C C-terminal 12 aa]: the protein stability index is, setting by setting: under setting [1], 0.70477 ± 0.00046; (genetic background: wild type) 0.358 ± 0.0064.

Take KLYNYLLSIEVY [YLR123C C-terminal 12 aa]: the protein stability index was found to be 0.144 ± 0.013 under setting [1] and 0.191 ± 0.0098 (genetic background: wild type).

KMDKRAKNSDSA [RPL8A C-terminal 12 aa]: the protein stability index by setting is: under setting [1], 0.691 ± 0.0034; (genetic background: wild type) 0.6886 ± 0.0018.

On to KMLDALKNERKK [HTL1 C-terminal 12 aa], for which the protein stability index is 0.716 ± 0.015 under setting [1] and 0.673 ± 0.038 (genetic background: wild type).

Take KMPLVPTHYYKQ [GCV1 C-terminal 12 aa]: the protein stability index runs as follows: under setting [1], 0.706 ± 0.0089; (genetic background: wild type) 0.6559 ± 0.00066.

In the case of KNEQDEDKWDDF [GCS1 C-terminal 12 aa], the protein stability index reads like this: under setting [1], 0.729 ± 0.031; (genetic background: wild type) 0.672 ± 0.014.

With KNIKRDLRNVRI [TAX4 C-terminal 12 aa], the protein stability index is 0.7 ± 0.045 under setting [1] and 0.6514 ± 0.0059 (genetic background: wild type).

Turning to KNRYLHLLEQHK [BET4 C-terminal 12 aa], the protein stability index runs as follows: under setting [1], 0.692 ± 0.018; (genetic background: wild type) 0.67 ± 0.04.

Consider KPLLTSIFPNHK [YBL012C C-terminal 12 aa], for which the protein stability index by setting is: under setting [1], 0.718 ± 0.064; (genetic background: wild type) 0.667 ± 0.0098.

For KPLYYRIYRFFC [MMP1 C-terminal 12 aa], the protein stability index under setting [1] worked out at 0.764 ± 0.013 and the protein stability index (genetic background: wild type) was 0.537 ± 0.0091.

Take KQIAKQSSKMMK [VMR1 C-terminal 12 aa]: the protein stability index came out at 0.686 ± 0.0041 under setting [1] and 0.708 ± 0.03 (genetic background: wild type).

For the sequence KQKKQQAQPLRK [VRG4 C-terminal 12 aa], the protein stability index reads like this: under setting [1], 0.704 ± 0.012; (genetic background: wild type) 0.673 ± 0.026.

In the case of KQLQEGNRRHKL [DCI1 C-terminal 12 aa], the protein stability index is 0.768 ± 0.0084 under setting [1] and 0.808 ± 0.15 (genetic background: wild type).

KSEEAKKRTSLY [YBR124W C-terminal 12 aa]: the protein stability index was 0.694 ± 0.013 under setting [1] and 0.679 ± 0.023 (genetic background: wild type).

Take KSLFSIIDDLQS [MSH6 C-terminal 12 aa]: the protein stability index by setting is: under setting [1], 0.731 ± 0.0073; (genetic background: wild type) 0.727 ± 0.021.

In the case of KTFWDKFWNVVA [CAN1 C-terminal 12 aa], the protein stability index runs as follows: under setting [1], 0.735 ± 0.03; (genetic background: wild type) 0.193 ± 0.014.

In the case of KTGKSSVIDLQR [GCN2 C-terminal 12 aa], the protein stability index is, setting by setting: under setting [1], 0.712 ± 0.031; (genetic background: wild type) 0.726 ± 0.11.

In the case of KTRWQRVWDVLS [ALP1 C-terminal 12 aa], the protein stability index reads like this: under setting [1], 0.7259 ± 0.0053; (genetic background: wild type) 0.207 ± 0.01.

As to KTSSKGNARTLL [FMP49 C-terminal 12 aa], the protein stability index reads like this: under setting [1], 0.698 ± 0.025; (genetic background: wild type) 0.709 ± 0.0091.
